Results taken from article PMC3882260, “Defining the Ligand Specificity of the Deleted in Colorectal Cancer (DCC) Receptor” (PLoS ONE, 2014).

Biological target: T1, extracellular domain of human DCC (M1-N1097) with a C-terminal Fc tag (human, UniProt P43146 26-1097)
T1 construct: signal peptide in the construct; Deleted in Colorectal Cancer (DCC), human, extracellular domain, amino acids 1-1097; On the array it was loaded on protein-A microbeads 1:1 with Cy5-labeled human IgG; in SPR it was amine-coupled to the chip; also called DCC-Fc; source: CHO cells, transient transfection, purified (protein A-Sepharose, gel filtration); not shown: Fc (human IgG), C-terminal, kept
T1 sequence (P43146 26-1097): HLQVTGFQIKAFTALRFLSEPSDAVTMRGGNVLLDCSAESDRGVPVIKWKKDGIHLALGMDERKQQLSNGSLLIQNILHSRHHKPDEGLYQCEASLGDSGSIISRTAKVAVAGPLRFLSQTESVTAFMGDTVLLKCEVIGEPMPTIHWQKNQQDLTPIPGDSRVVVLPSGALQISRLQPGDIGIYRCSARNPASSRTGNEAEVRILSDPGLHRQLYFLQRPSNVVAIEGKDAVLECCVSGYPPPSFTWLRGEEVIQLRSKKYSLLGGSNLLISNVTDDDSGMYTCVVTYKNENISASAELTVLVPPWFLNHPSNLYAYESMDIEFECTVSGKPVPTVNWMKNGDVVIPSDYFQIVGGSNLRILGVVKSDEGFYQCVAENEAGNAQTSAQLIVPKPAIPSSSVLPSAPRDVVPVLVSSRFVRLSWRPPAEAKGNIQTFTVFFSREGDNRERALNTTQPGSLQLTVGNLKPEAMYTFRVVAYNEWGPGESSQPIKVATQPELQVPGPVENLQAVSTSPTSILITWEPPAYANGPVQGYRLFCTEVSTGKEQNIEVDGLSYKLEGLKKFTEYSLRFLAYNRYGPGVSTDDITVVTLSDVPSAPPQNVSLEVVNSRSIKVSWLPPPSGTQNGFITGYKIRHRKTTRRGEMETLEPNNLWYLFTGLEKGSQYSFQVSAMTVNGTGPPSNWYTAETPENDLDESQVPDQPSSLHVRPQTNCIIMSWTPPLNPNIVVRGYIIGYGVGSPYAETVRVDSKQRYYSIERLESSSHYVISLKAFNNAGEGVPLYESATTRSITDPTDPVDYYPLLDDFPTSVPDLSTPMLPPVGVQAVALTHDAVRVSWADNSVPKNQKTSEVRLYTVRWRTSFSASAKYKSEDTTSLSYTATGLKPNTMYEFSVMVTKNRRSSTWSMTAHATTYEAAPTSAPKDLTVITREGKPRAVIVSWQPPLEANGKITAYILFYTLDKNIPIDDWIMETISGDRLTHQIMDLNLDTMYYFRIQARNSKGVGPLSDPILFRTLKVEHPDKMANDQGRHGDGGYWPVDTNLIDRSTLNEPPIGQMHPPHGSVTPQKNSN
Assay: peptide or protein array; DCC-Fc mixed 1:1 with Cy5-labeled hIgG on multivalent protein-A microbeads, incubated with extracellular protein microarrays (Library 1: 1,334 samples; Library 2: 624 samples) on epoxysilane slides; washed with PBS-T; Cy5 fluorescence; two replicate screens
Settings: both partners purified

B1: full length CBLN4 C-terminal His (ligand, human, UniProt Q9NTU7 28-201, looked up)
chain: QNDTEPIVLEGKCLVVCDSNPATDSKGSSSSPLGISVRAANSKVAFSAVRSTNHEPSEMSNKTRIIYFDQILVNVGNFFTLESVFVAPRKGIYSFSFHVIKVYQSQTIQVNLMLNGKPVISAFAGDKDVTREAATNGVLLYLDKEDKVYLKLEKGNLVGGWQYSTFSGFLVFPL
notes: Cerebellin 4 (CBLN4), full length; also called CBLN4-His
B1: binds.
